# According to paper PMC2288786 (BMC Structural Biology, 2008):
# Experiments:
# Conditions in all cases: both partners purified
# [1] = biological target: T1, calmodulin (recombinant, from the expression construct pETCM with vertebrate CaM cDNA) ( (vertebrate CaM cDNA), UniProt P0DP23 2-149); assay: ITC; 1.0 mM MBP peptide injected into 0.10 mM CaM; 50 mM HEPES pH 7.5, 20 mM CaCl2; +40°C; fits: one site (peaks 2-7) and 4 sequential sites (peaks 2-20)
# [2] = biological target: T1, calmodulin (recombinant, from the …); assay: ITC; 1.0 mM MBP peptide injected into 0.10 mM CaM; 50 mM HEPES pH 7.5, 20 mM CaCl2; +30°C; fits: one site (peaks 2-7) and 4 sequential sites (peaks 2-20)
# [3] = biological target: T1, calmodulin (recombinant, from the …); assay: ITC; 1.0 mM MBP peptide injected into 0.10 mM CaM; 50 mM HEPES pH 7.5, 20 mM CaCl2; +35°C; fits: one site (peaks 2-7) and 4 sequential sites (peaks 2-20)
# [4] = biological target: T1, calmodulin (recombinant, from the …); assay: SPR; Biacore 3000; CaM immobilised by amine coupling (4000 RU); peptide 2.5-200 μM injected; 10 mM HEPES pH 7.5, 150 mM NaCl, 4 mM CaCl2, 0.005% P-20; 30 μl/min; two-state conformational change model; also 2-site model on equilibrium RU
# [5] = biological target: T1, calmodulin (recombinant, from the …); assay: small-angle X-ray scattering (SAXS); CaM in solution with and without a 5-fold molar excess of the peptide, 5.4 to 140.0 mg/ml; X33 beamline, DESY
# [6] = biological target: T1, calmodulin (recombinant, from the …); assay: ITC; 1.0 mM MBP peptide injected into 0.10 mM CaM; 50 mM HEPES pH 7.5, 20 mM CaCl2; +25°C; fits: one site (peaks 2-7) and 4 sequential sites (peaks 2-20)
binder,measurement,setting,value
"HKGFKGVDAQGTLSKIFKL (myelin basic protein, human, 18.5-kDa isoform, residues 138-156; also called the peptide; myelin peptide; source: synthetic peptide, 95% purity; bought: Genemed Synthesis) [MBP peptide HKGFKGVDAQGTLSKIFKL, residues 138-156 of the human MBP 18.5 kDa isoform]",Kd,[1],25.9 µM
same,Kd of the first binding event (4-site model),[1],1.7 µM
same,dH,[1],-1.09 ± 0.97 kcal/mol
same,dH of the first binding event (4-site model),[1],-0.73 ± 0.05 kcal/mol
same,stoichiometry N,[1],0.7 ± 0.17
same,Kd,[2],2.3 µM
same,Kd of the first binding event (4-site model),[2],1.1 µM
same,dH,[2],-2.11 ± 0.06 kcal/mol
same,dH of the first binding event (4-site model),[2],-2.07 ± 0.02 kcal/mol
same,stoichiometry N,[2],0.67 ± 0.02
same,Kd,[3],1.9 µM
same,Kd of the first binding event (4-site model),[3],1 µM
same,dH,[3],-2.38 ± 0.1 kcal/mol
same,dH of the first binding event (4-site model),[3],-2.34 ± 0.03 kcal/mol
same,stoichiometry N,[3],0.63 ± 0.02
same,Kd,[4],58 µM
same,"Kd of the high-affinity binding event (2-site model, equilibrium RU)",[4],~10 µM
same,"Kd of the low-affinity binding event (2-site model, equilibrium RU)",[4],~1000 µM
same,stoichiometry N,[5],1
same,Kd,[6],3.4 µM
same,Kd of the first binding event (4-site model),[6],1 µM
same,dH,[6],-1.47 ± 0.13 kcal/mol
same,dH of the first binding event (4-site model),[6],-1.44 ± 0.04 kcal/mol
same,stoichiometry N,[6],0.83 ± 0.23
